B1: HDV Ribozyme (parent)
chain: GGCCGGCAUGGUCCCAGCCUCCUCGCUGGCGCCGGCUGGGCAACAUUCCGAGGGGACCGUCCCCUCGGUAAUGGCGAAUGGGACCCA

The variants in this data set derive from B1. Nature of the data set: self-cleavage, relative activity (ratio to wild type); higher = more cleavage; co-transcriptional.
On to A43C G52A, for which the self-cleavage was 0.511.
As for A43C G52C, the figure is 0.386; as for A43C G52U, 0.402.
As for C41U G73U, the figure is 0.511; as for C41U U60G, 1.1.
The value for A43C C85A was 0.361; that for A43C C85U was 0.475.
Turning to A43C C85G, the self-cleavage is 0.519.
The value for A42U A51U was 0.509; that for A42U A51G was 0.508; that for A42G G54C was 0.614.
As for A42G G54A, the figure is 0.567; as for C41U G55C, 0.885.
As for A42G C64U, the self-cleavage turned out to be 0.45.
Turning to A42C G81U, the self-cleavage is 0.16.
For A42C G81A, the self-cleavage stood at 0.104.
As for A42C A45G, the figure is 0.465; as for A42G G74C, 0.095.
The value for A42G G74U was 0.0791; that for A43C A56G was 0.404.
As to A42U G54A, the self-cleavage was determined as 0.441.
As for A42U G54C, the self-cleavage came out at 0.381.
The value for A42G G67C was 0.365.
As to A42G C63A, the self-cleavage was 0.359.
Regarding A42G C63U, the self-cleavage is 0.633.
For the variant A42G C63G, the self-cleavage is 0.504.
As for A42G C44G, the figure is 0.
Regarding C41U G67U, the self-cleavage was determined as 0.604.
C41U G67C: the self-cleavage was 0.554.
With C41U G67A, the self-cleavage was determined as 0.439.
The value for A43C G59U was 0.639; that for A43C G59C was 0.322.
The value for A42G A83U was 0.185; that for A42G A83C was 0.119.
As for C41U U47A, the figure is 0.96; as for C41U C57U, 1.12; as for A42C G59U, 0.424.
As to A42C G59A, the self-cleavage is 0.213.
As for A42U G50C, the figure is 0.285; as for A42U G50U, 0.727.
As for C41U C49U, the figure is 0.749.
In the case of A42G G52A, the self-cleavage amounted to 0.483.
A42C C85U: the self-cleavage came out at 0.415.
The value for A43C G68C was 0.283.
For A42U G53C, the self-cleavage was found to be 0.437.
The value for A42U G53U was 0.698.
For A42U U60A, the self-cleavage came to 0.665.
The value for A42C G68C was 0.198; that for A42G G81A was 0.106.
Take A42G G81C: the self-cleavage turned out to be 0.0386.
The value for C41U A70U was 0.936; that for A42G G73A was 0.192.
As for A42G G73U, the figure is 0.147.
A42C A51C: the self-cleavage stood at 0.0594.
The value for A43C G73U was 0.604; that for A42C G67A was 0.249.
The value for A42C G67C was 0.17.
The value for C41U C75U was 0.249; that for A42G A51U was 0.464.
A42G A51C: the self-cleavage worked out at 0.831.
In the case of A42G G68A, the self-cleavage was determined as 0.441.
The value for A42G G68U was 0.403; that for A42C G54C was 0.269.
As for A42C G54U, the figure is 0.312; as for C41U A45C, 0.569; as for A42G G80A, 0.0997.
The value for A42U C85U was 0.541; that for A42U C61U was 0.445; that for A42U C61G was 0.77.
Regarding A42U C61A, the self-cleavage was 0.47.
As for C41U U65A, the self-cleavage worked out at 0.92.
Turning to A42G G76U, the self-cleavage amounted to 0.782.
The value for A42G G76C was 0.672; that for A42U A70C was 0.636; that for A42U A70G was 0.571.
Turning to A42C A78U, the self-cleavage amounted to 0.0449.
The value for A42C A78C was 0.169; that for A42U A45G was 0.237.
As for A42U A45C, the figure is 0.361.
The value for C41U A43C was 0.831.
Consider C41U A43U, for which the self-cleavage turned out to be 0.489.
As for C41U A43G, the figure is 0.356.
As for A43C C48U, the figure is 0.619; as for A43C C48G, 0.449.
As for A42C A43U, the figure is 0.122; as for A42C A43C, 0; as for A42C A43G, 0.0898.
For the variant A43C G67A, the self-cleavage was found to be 0.322.
As for A42G A87U, the figure is 0.479; as for A42G A87C, 0.521.
As for A42G A70U, the figure is 0.365; as for A42U G52U, 0.592.
The value for A42U G52C was 0.799.
As for A42U G52A, the self-cleavage worked out at 0.612.
Regarding A43C C86A, the self-cleavage worked out at 0.443.
Turning to A43C C86G, the self-cleavage was 0.399.
The value for A42C G55A was 0.578.
The value for C41U G52A was 1.06.
C41U A83U: the self-cleavage is 0.583.
As to C41U A83C, the self-cleavage is 0.332.
The value for A43C A51G was 0.499.
As for A43C A51C, the figure is 0.604; as for A43C A51U, 0.324; as for A42C A71C, 0.332.
The value for A42C A71U was 0.166; that for C41U C85U was 0.845; that for A42U C57G was 0.489.
A42U C57U: the self-cleavage worked out at 0.428.
The value for A42U U65C was 0.657.
As for A42U G76A, the figure is 0.764; as for A42U G76C, 0.639.
As for A42C U72G, the figure is 0.256.
As for A42U G55C, the self-cleavage was 0.87.
As for A43C G50U, the figure is 0.432; as for A42U C58A, 0.481; as for A42U C58U, 0.271.
For the variant A42U C58G, the self-cleavage amounted to 0.443.
The value for C41U A78U was 0.199.
The value for C41U A78C was 0.178; that for A42C C66U was 0.489; that for A42C C66G was 0.243.
As for A42U A78G, the figure is 0.264; as for A42C G74A, 0.0652.
In the case of A42C G74U, the self-cleavage was found to be 0.0733.
As for A42G U72C, the self-cleavage is 0.475.
The value for A42G U72G was 0.35.
As for C41U U46C, the figure is 0.734; as for C41U A51G, 0.914.
For A42C C49A, the self-cleavage is 0.262.
As for A42C C49U, the figure is 0.115; as for A42C A87C, 0.367.
The value for A42C A87G was 0.219.
As for A42G U65G, the figure is 0.536; as for A42G U65A, 0.703; as for C41U G74A, 0.637.
Take C41U C62A: the self-cleavage stood at 1.02.
For A42G C58G, the self-cleavage was found to be 0.554.
Turning to A42G C58U, the self-cleavage worked out at 0.617.
The value for A42U C66A was 0.511; that for A42U C66U was 0.61.
On to A42U C66G, for which the self-cleavage came out at 0.386.
As for A42U A87U, the self-cleavage turned out to be 0.56.
As for A42G A45U, the figure is 0.598; as for A42G A45G, 0.383; as for A42C C48U, 0.26.
As for A42C C48A, the figure is 0.361; as for A42U C63G, 0.504.
A42U C63U: the self-cleavage was 0.506.
For A42C C44A, the self-cleavage was 0.285.
For the variant A42C C44U, the self-cleavage was 0.161.
As for A42G C84G, the figure is 0.314; as for A43C G81C, 0.0773; as for C41U G82C, 0.136.
The value for A43C C75A was 0.298.
Consider A43C C75G, for which the self-cleavage came out at 0.314.
The value for A43C C75U was 0.172; that for A42C C64U was 0.208.
The value for A42C C64A was 0.212.
As for A42C G52A, the figure is 0.399; as for A42C C61G, 0.269.
With A42C C61U, the self-cleavage came to 0.199.
The value for A42C C61A was 0.312.
Consider A42U G74U, for which the self-cleavage was found to be 0.277.
The value for C41U C66A was 0.719; that for C41U C66U was 1.
Consider A42U C44A, for which the self-cleavage was 0.688.
As for A42C C57U, the figure is 0.203.
